± gives the half width of the 95% confidence interval.
What was measured:
[1] = folding stability dG unfold (combined trypsin and chymotrypsin); higher = more stable
Outline: (§1)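 Unfolding free energy was derived, per protease or combined, against a sequence-predicted unfolded-state K50 and a shared folded-state K50, starting from K50 inferred by Bayesian fitting of sequencing counts. Digestion with trypsin and chymotrypsin was carried out on designed mini-proteins under 80 residues without cysteine in a PA-tagged cDNA display construct. Only designs with AlphaFold2 dimer inter-PAE above 15 were kept.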

[2] = folding stability dG unfold from chymotrypsin proteolysis; higher = more stable
Outline: as §1

[3] = folding stability dG unfold from trypsin proteolysis; higher = more stable
Outline: as §1

Sequence	folding stability dG unfold [1]	folding stability dG unfold [2]	folding stability dG unfold [3]
SAGGSMSLEEIKKLEIELEKEEGEKLKAEVTVLPDGKLFVRVNGKLFEIDLKTGKIVEVKELPPDESAGGSA [r2_374_TrROS_Hall]	2.47 ± 0.21 kcal/mol	2.38 ± 0.057 kcal/mol	2.49 ± 0.19 kcal/mol
SAGGMKIKIKIKPGQVILIKIRNKETGEEKTILVEVKEDQEITIELPEGYEIVDIKIVPLEDLPEEELSAGG [r13_119_TrROS_Hall]	4.05 ± 0.23 kcal/mol	3.96 ± 0.17 kcal/mol	3.94 ± 0.3 kcal/mol
SAGGSAGGSAGMVLPVTKVYRDGDTVYLYFDGLGLIAEIRIDDDKITLPSVYRVHPDEDLSAGGSAGGSAGG [r17_30_TrMRF]	0.691 ± 0.095 kcal/mol	0.438 ± 0.11 kcal/mol	0.835 ± 0.038 kcal/mol
SAGGSAGGSAGKYAIVEVNGKPVLVEFEPLPDDKVKVKIVFPDGSKVEIELKANEPIYVGSAGGSAGGSAGG [r11_525_TrMRF]	1.83 ± 0.13 kcal/mol	1.72 ± 0.076 kcal/mol	1.75 ± 0.095 kcal/mol
SAGGIELTIPLPNGMLIKIKIESIHIQPVPVWRKKKDPDGKPKDWEPQPFTFSISIRFSIEIYDPDDLSAGG [r13_848_TrROS]	4.97 ± 0.35 kcal/mol	5.07 ± 0.16 kcal/mol	3.47 ± 0.2 kcal/mol
SAGGSAGGSMEIIGSFTFPNPNGMNIKVNVYRNPEEKKWWAKVEIWDGGKPKTHTMPLDDFLKSAGGSAGGS [r12_1063_TrROS]	1.73 ± 0.1 kcal/mol	2.06 ± 0.088 kcal/mol	1.23 ± 0.042 kcal/mol
SAMKTETITVPGLKIEVTENKDGKKTIKITAATPEQAEEWLKKNPELRKLIEELEKAGYKVEITVLPPPSAG [r14_873_TrROS_Hall]	3.01 ± 0.049 kcal/mol	2.83 ± 0.051 kcal/mol	3.4 ± 0.17 kcal/mol
SAGGKQEIEIPIPYKNGMPFRIRIEWEEDPNKPRLRIPIWAPNMPASNFAEEIKKELPPDIKDVEIWPSAGG [r13_404_TrROS]	0.0846 ± 0.64 kcal/mol	0.0456 ± 0.72 kcal/mol	0.685 ± 0.2 kcal/mol
SAGGMKKKLLILVDSNNPNIPLEKIKEFFKKKGFDEVETLSLENIPPEKAIELAKKEKKPLLIIPTSSAGGS [r16_94_TrMRF]	1.97 ± 0.063 kcal/mol	2.21 ± 0.04 kcal/mol	1.376 ± 0.012 kcal/mol
SAGGSSMPLVKKEVDATRPDGSPLSFEEYLSSLKPNIRSEPIPNGKTVVTAPDPATGSTYTITIEESAGGSA [r2_234_JUSTAS]	-0.428 ± 0.079 kcal/mol	-0.37 ± 0.14 kcal/mol	-1.31 ± 0.19 kcal/mol
SAGGSAGGSAMTPPEELKEKIAAEVSPDTTVTETFPEEPLVVKITRNPSGTITVEVVSPEELSAGGSAGGSA [r18_61_JUSTAS]	0.546 ± 0.088 kcal/mol	0.906 ± 0.049 kcal/mol	-0.418 ± 0.11 kcal/mol
SAGGKKITITLTVKTPEDALAAARELAEALGLKIKKIKKVEVTYDEENNLVTVKVEIEIEPLPEEELSAGGS [r16_155_TrROS_Hall]	4.41 ± 0.19 kcal/mol	4.27 ± 0.1 kcal/mol	4.69 ± 0.33 kcal/mol
SAGPAVVIPLPLDPEKWSPEEILEAAIKLAEEAYKAGLPGSVTLLVPVPEKPLLITIDPKTGKITVDPSAGG [r19_204_TrMRF]	1.63 ± 0.072 kcal/mol	1.73 ± 0.066 kcal/mol	1.49 ± 0.083 kcal/mol
SAKPKVIAEITIYNKETGKVVRITLTDEALEEAKKKGLKEVKLTVEIEVVNPDGSKKTFKMEITLKVEDSAG [r14_100_TrROS_Hall]	3.96 ± 0.26 kcal/mol	4.08 ± 0.17 kcal/mol	2.77 ± 0.26 kcal/mol
IVISPSMLRDARRQGIPKELLKKAKNVIIWSSNGNPEWAKELKEWPGVKKIKPVPPGDPDKQKDADHVIHFS [r1_248_TrROS]	-0.482 ± 0.29 kcal/mol	-0.673 ± 0.49 kcal/mol	-0.554 ± 0.55 kcal/mol
SAGGIKIPPGQEIEMPFKVRVGGEPYPFRIEIKILKVNPDNGHFLIKMEIEDPENGQPIAEFTFFIPPSAGG [r13_582_TrROS]	3.35 ± 0.39 kcal/mol	4.4 ± 0.23 kcal/mol	2.64 ± 0.25 kcal/mol
SAGGSAGGSAGGVPPESVLLSEEKVGGKTVEIVRDPATGKLYRVTKVPGSDSIEVEELGLSAGGSAGGSAGG [r7_179_JUSTAS]	2.43 ± 0.092 kcal/mol	2.549 ± 0.013 kcal/mol	2.2 ± 0.093 kcal/mol
PSVVYLVLRRPEGGPVRSFRFPVPDRGEPGFEEVLDLIERVTGVSRGALRKNVRIVPVPETGDVLVVADLSS [r1_285_TrMRF]	1.88 ± 0.065 kcal/mol	1.52 ± 0.058 kcal/mol	2.052 ± 0.014 kcal/mol
NKIEIKAYKIEETGEIIVEVKIEFPVYDPETKTIKPVVLTITFVGDPEKAIEAIKKFVDFYGGEIDYIDFGS [r1_488_TrMRF]	4.36 ± 0.1 kcal/mol	4.5 ± 0.091 kcal/mol	2.84 ± 0.099 kcal/mol
SAGMIDYIEIKPEKLPNGKYKVTITIYDSSTGTTTTYEKEMTPEEAKELAEKIKESNPDKPVKFGNLESAGG [r19_317_JUSTAS]	1.93 ± 0.2 kcal/mol	1.78 ± 0.089 kcal/mol	2.06 ± 0.093 kcal/mol
SAGSMELLEKKEGKLPDGRVYTTETLRNPANGLYEVKTFVFEPGGNPLAEERITYEGDKLVSSETIYLGSAG [r14_828_JUSTAS]	0.594 ± 0.077 kcal/mol	0.842 ± 0.075 kcal/mol	0.199 ± 0.04 kcal/mol
